From the supplement of paper PMC5998384 come the findings set out here.

Data set [1] has as its system HeLa Kyoto. The data set is described as follows: solubility in G1/S (NP-40 vs SDS abundance) (log2 ratio); higher = more soluble. To be noted: cell cycle stage: G1/S.
For data set [2], the system named is HeLa Kyoto. The data set is described as follows: melting temperature (median over replicates), in situ; higher = more thermally stable.
In data set [3] the test system is HeLa Kyoto. Briefly: solubility change mitosis vs G1/S (difference of NP-40 vs SDS log2 ratios) (log2 ratio difference); higher = more soluble in mitosis.
Data set [4] has as its system HeLa Kyoto. Briefly: thermal stability score vs G1/S (z-score of summed log2 fold changes over temperatures); higher = more thermally stable than in G1/S.
Setting [5] is: cell cycle stage: early G1 (4.5 h after nocodazole release).
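Throughout, for melting temperature (median over replicates), in situ: HeLa Kyoto cells synchronized by double thymidine or nocodazole block, proteins quantified by TMT10plex mass spectrometry, three independent biological replicates.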
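Throughout, for solubility change mitosis vs G1/S (difference of NP-40 vs SDS log2 ratios): synchronized HeLa Kyoto cells (double thymidine block for G1/S, nocodazole release for mitosis), protein amounts in NP-40 versus SDS lysates quantified by mass spectrometry, three biological replicates.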
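Throughout, for solubility in G1/S (NP-40 vs SDS abundance): HeLa Kyoto cells arrested at G1/S by double thymidine block, proteins quantified by TMT10plex mass spectrometry in mild NP-40 versus SDS extracts, three biological replicates.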
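Throughout, for thermal stability score vs G1/S (z-score of summed log2 fold changes over temperatures): synchronized HeLa Kyoto cells, proteins quantified by TMT10plex mass spectrometry, three biological replicates, mitosis taken 0.5 h after nocodazole release, G1/S directly after double thymidine block.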

As to “MFIKGRAPRAPPRERRRATRGGLRQVVAPPRALGSTSRPHFRRASVCRRRCRKSGGLLAASRKMAAAAVNGAAGFSSSGPAATSGAVLQAATGMYEQLKGEWNRKSPNLSKCGEELGRLKLVLLELNFLPTTGTKLTKQQLILARDILEIGAQWSILRKDIPSFERYMAQLKCYYFDYKEQLPESAYMHQLLGLNLLFLLSQNRVAEFHTELERLPAKDIQTNVYIKHPVSLEQYLMEGSYNKVFLAKGNIPAESYTFFIDILLDTIRDEIAGCIEKAYEKILFTEATRILFFNTPKKMTDYAKKRGWVLGPNNYYSFASQQQKPEDTTIPSTELAKQVIEYARQLEMIV [PSMD8]”, the “solubility in G1/S (log2)” value in the data set on HeLa Kyoto [1] turned out to be 0.278. Further, the melting temperature in the data set with HeLa Kyoto [2] (cell cycle stage: G1/S) turned out to be 53.4 °C; in the data set on HeLa Kyoto [2] (cell cycle stage: mitosis), 54.5 °C. Moreover, in the data set on HeLa Kyoto [3], the “solubility change mitosis (log2)” value turned out to be 0.0108. The thermal stability score in the data set on HeLa Kyoto [4] (setting [5]) was -1.02; in the data set with HeLa Kyoto [4] (cell cycle stage: mitosis) it was -0.0502.
On to “MFKVIQRSVGPASLSLLTFKVYAAPKKDSPPKNSVKVDELSLYSVPEGQSKYVEEARSQLEESISQLRHYCEPYTTWCQETYSQTKPKMQSLVQWGLDSYDYLQNAPPGFFPRLGVIGFAGLIGLLLARGSKIKKLVYPPGFMGLAASLYYPQQAIVFAQVSGERLYDWGLRGYIVIEDLWKENFQKPGNVKNSPGTK [APOO]”, for which the “solubility in G1/S (log2)” value in the data set on HeLa Kyoto [1] stood at 0.444. Further, the melting temperature with HeLa Kyoto [2] (cell cycle stage: G1/S) was found to be 54.8 °C; in the data set with HeLa Kyoto [2] (cell cycle stage: mitosis), 56 °C. Also, the “solubility change mitosis (log2)” value in the data set with HeLa Kyoto [3] was determined as 0.185. Also, the thermal stability score with HeLa Kyoto [4] (setting [5]) is -1.86; in the data set on HeLa Kyoto [4] (cell cycle stage: mitosis) it was -2.5.
On to “MFLPHMNHLTLEQTFFSQVLPKTVKLFDDMMYELTSQARGLSSQNLEIQTTLRNILQTMVQLLGALTGCVQHICATQESIILENIQSLPSSVLHIIKSTFVHCKNSESVYSGCLHLVSDLLQALFKEAYSLQKQLMELLDMVCMDPLVDDNDDILNMVIVIHSLLDICSVISSMDHAFHANTWKFIIKQSLKHQSIIKSQLKHKDIITSLCEDILFSFHSCLQLAEQMTQSDAQDNADYRLFQKTLKLCRFFANSLLHYAKEFLPFLSDSCCTLHQLYLQIHSKFPPSLYATRISKAHQEEIAGAFLVTLDPLISQLLTFQPFMQVVLDSKLDLPCELQFPQCLLLVVVMDKLPSQPKEVQTLWCTDSQVSETTTRISLLKAVFYSFEQCSGELSLPVHLQGLKSKGKAEVAVTLYQHVCVHLCTFITSFHPSLFAELDAALLNAVLSANMITSLLAMDAWCFLARYGTAELCAHHVTIVAHLIKSCPGECYQLINLSILLKRLFFFMAPPHQLEFIQKFSPKEAENLPLWQHISFQALPPELREQTVHEVTTVGTAECRKWLSRSRTLGELESLNTVLSALLAVCNSAGEALDTGKQTAIIEVVSQLWAFLNIKQVADQPYVQQTFSLLLPLLGFFIQTLDPKLILQAVTLQTSLLKLELPDYVRLAMLDFVSSLGKLFIPEAIQDRILPNLSCMFALLLADRSWLLEQHTLEAFTQFAEGTNHEEIVPQCLSSEETKNKVVSFLEKTGFVDETEAAKVERVKQEKGIFWEPFANVTVEEAKRSSLQPYAKRARQEFPWEEEYRSALHTIAGALEATESLLQKGPAPAWLSMEMEALQERMDKLKRYIHTLG [C1ORF112]”, for which the “solubility in G1/S (log2)” value with HeLa Kyoto [1] was -0.208. In addition, the values for the melting temperature with HeLa Kyoto [2] (cell cycle stage: G1/S) and with HeLa Kyoto [2] (cell cycle stage: mitosis) were 47.9 °C and 48.9 °C, respectively. The “solubility change mitosis (log2)” value with HeLa Kyoto [3] was -0.0761. Further, the thermal stability score came to 0.547 in the data set on HeLa Kyoto [4] (setting [5]) and 1.23 in the data set with HeLa Kyoto [4] (cell cycle stage: mitosis).
Take “MFLTRSEYDRGVNTFSPEGRLFQVEYAIEAIKLGSTAIGIQTSEGVCLAVEKRITSPLMEPSSIEKIVEIDAHIGCAMSGLIADAKTLIDKARVETQNHWFTYNETMTVESVTQAVSNLALQFGEEDADPGAMSRPFGVALLFGGVDEKGPQLFHMDPSGTFVQCDARAIGSASEGAQSSLQEVYHKSMTLKEAIKSSLIILKQVMEEKLNATNIELATVQPGQNFHMFTKEELEEVIKDI [PSMA5]”: the “solubility in G1/S (log2)” value in the data set on HeLa Kyoto [1] was 0.313. In addition, the melting temperature was determined as 55.4 °C in the data set with HeLa Kyoto [2] (cell cycle stage: G1/S) and 53.9 °C in the data set with HeLa Kyoto [2] (cell cycle stage: mitosis). Further, the “solubility change mitosis (log2)” value in the data set on HeLa Kyoto [3] is -0.0172. Also, the thermal stability score with HeLa Kyoto [4] (setting [5]) was 1.94; with HeLa Kyoto [4] (cell cycle stage: mitosis), 2.76.
For “MFLVNSFLKGGGGGGGGGGGLGGGLGNVLGGLISGAGGGGGGGGGGGGGGGGGGGGTAMRILGGVISAISEAAAQYNPEPPPPRTHYSNIEANESEEVRQFRRLFAQLAGDDMEVSATELMNILNKVVTRHPDLKTDGFGIDTCRSMVAVMDSDTTGKLGFEEFKYLWNNIKRWQAIYKQFDTDRSGTICSSELPGAFEAAGFHLNEHLYNMIIRRYSDESGNMDFDNFISCLVRLDAMFRAFKSLDKDGTGQIQVNIQEWLQLTMYS [CAPNS1]”, the “solubility in G1/S (log2)” value with HeLa Kyoto [1] came out at 0.395. Further, the melting temperature with HeLa Kyoto [2] (cell cycle stage: G1/S) stood at 55.4 °C; with HeLa Kyoto [2] (cell cycle stage: mitosis) it was 55 °C. Also, the “solubility change mitosis (log2)” value in the data set on HeLa Kyoto [3] was -0.0652. Moreover, the thermal stability score is 1.02 in the data set with HeLa Kyoto [4] (setting [5]) and 1.65 with HeLa Kyoto [4] (cell cycle stage: mitosis).
On to “MFRGLSSWLGLQQPVAGGGQPNGDAPPEQPSETVAESAEEELQQAGDQELLHQAKDFGNYLFNFASAATKKITESVAETAQTIKKSVEEGKIDGIIDKTIIGDFQKEQKKFVEEQHTKKSEAAVPPWVDTNDEETIQQQILALSADKRNFLRDPPAGVQFNFDFDQMYPVALVMLQEDELLSKMRFALVPKLVKEEVFWRNYFYRVSLIKQSAQLTALAAQQQAAGKEEKSNGREQDLPLAEAVRPKTPPVVIKSQLKTQEDEEEISTSPGVSEFVSDAFDACNLNQEDLRKEMEQLVLDKKQEETAVLEEDSADWEKELQQELQEYEVVTESEKRDENWDKEIEKMLQEEN [SYAP1]”, for which, in the data set on HeLa Kyoto [1], the “solubility in G1/S (log2)” value turned out to be 0.391. The values for the melting temperature with HeLa Kyoto [2] (cell cycle stage: G1/S) and in the data set with HeLa Kyoto [2] (cell cycle stage: mitosis) were 53.2 °C and 53.5 °C, respectively. Besides, the “solubility change mitosis (log2)” value with HeLa Kyoto [3] worked out at 0.264. Further, the thermal stability score in the data set on HeLa Kyoto [4] (setting [5]) was -0.579; in the data set with HeLa Kyoto [4] (cell cycle stage: mitosis) it was -1.49.
